In the oligonucleotide strings, read from the 5' end, every base follows the letter of its sugar. An asterisk marks phosphorothioate; unmarked linkages are phosphodiester. Other units and linkages are bracketed, terminal groups are in braces. A string of capitals states the bases alone. m = 2'-O-methyl; r = 2'-OH (RNA)
B1: GA401 (nucleic acid)
guide: mU*mC*mA*rGrCrUrCrCrArGrGrCrGrGrUrCrCrUrGrGmGrUrUrUrUrArGmAmGmCmUmAmGmAmAmAmUmAmGmCmAmArGrUrUmArAmArAmUrAmAmGmGmCmUmArGrUmCmCrGrUrUrAmUmCrArAmCmUmUmGmAmAmAmAmAmGmUmGrGmCmAmCmCmGmAmGmUmCmGmGmUmGmCmU*mU*mU*mUmUmUmU
B2: GA402 (nucleic acid)
guide: mU*mC*mA*rGrCrUrCrCrArGrGrCrGrGrUrCrCrUrGrGmGrUrUrUrUrArGmAmGmCmUmArGmAmAmAmUmAmGmCmAmArGrUrUmArAmArAmUrAmAmGmGmCmUmArGrUmCmCrGrUrUrAmUmCrArAmCmUmUrGmAmAmAmAmAmGmUmGrGmCmAmCmCmGmAmGmUmCmGmGmUmGmCmU*mU*mU*mUmUrUmU
B3: GA404 (nucleic acid)
guide: mU*mC*mA*rGrCrUrCrCrArGrGrCrGrGrUrCrCrUrGrGmGrUrUrUrUrArGmAmGmCmUmArGmAmAmAmUmAmGmCmAmArGrUrUmArAmArAmUrAmAmGmGmCmUmArGrUmCmCrGrUrU*rAmUmCrArAmCmUmUrGmAmAmAmAmAmGmUmGrGmCmAmCmCmGmAmGmUmCmGmGmUmGmCmU*mU*mU*mUmUrUmU
B4: GA408 (nucleic acid)
guide: mU*mC*mA*rGrCrUrCrCrArGrGrCrGrGrUrCrCrUrGrGmGrUrUrUrUrArGmAmGmCmUmAmGmAmAmAmUmAmGmCmAmArGrUrUmArAmArAmUrAmAmGmGmCmUmArGrUmCmCrGrUrUrAmUmCrArAmCmUmUmGmAmAmAmAmAmGmUmGrGmCmAmCmCmGmAmGmUmCmGmGmUmGmCmU*mU*mU*mUmUrUmU
B5: GA406 (nucleic acid)
guide: TCAGCTCCAGGCGGTCCTGGGTTTTAGAGCTAGAAATAGCAAGTTAAAATAAGGCTAGTCCGTTATCAACTTGAAAAAGTGGCACCGAGTCGGTGCTTTTTTT
modifications: listed as RNA; modified_base 1: mod_base = OTHER; note = 2'-O-Methyl-uridine phosphorothioate; modified_base 2: mod_base = OTHER; note = 2'-O-Methyl-cytidine phosphorothioate; modified_base 3: mod_base = OTHER; note = 2'-O-Methyl-adenosine phosphorothioate;
B6: GA403 (nucleic acid)
guide: mU*mC*mA*rGrCrUrCrCrArGrGrCrGrGrUrCrCrUrGrGmGrUrUrUrUrArGmAmGmCmUmArGmAmAmAmUmAmGmCmAmArGrUrU*mArAmArAmUrAmAmGmGmCmUmArGrUmCmCrGrUrUrAmUmCrArAmCmUmUrGmAmAmAmAmAmGmUmGrGmCmAmCmCmGmAmGmUmCmGmGmUmGmCmU*mU*mU*mUmUrUmU
B7: GA226: PCSK9 gRNA; protospacer GGCTTTTCCGAATAAACTCC (SEQ ID NO: 220) (nucleic acid)
guide: GGCUUUUCCGAAUAAACUCCGUUUUAGAGCUAGAAAUAGCAAGUUAAAAUAAGGCUAGUCCGUUAUCAACUUGAAAAAGUGGCACCGAGUCGGUGCUUUU
modifications: sugars from the 5' end m3 r94 m3, linkages s3 o93 s3 (s phosphorothioate, o phosphodiester), T or U not given here
B8: GA007: structure-guided 2′-OMe heavy guide RNA (gRNA) design, PCSK9 (nucleic acid)
guide: mG*mG*mU*rGrCrUrArGrCrCrUrUrGrCrGrUrUrCrCrGmGrUrUrUrUrArGmAmGmCmUmAmGmAmAmAmUmAmGmCmAmArGrUrUmArAmArAmUrAmAmGmGmCmUmArGrUmCmCrGrUrUrAmUmCrArAmCmUmUmGmAmAmAmAmAmGmUmGrGmCmAmCmCmGmAmGmUmCmGmGmUmGmCmU*mU*mU*mU
B9: GA008: structure-guided 2′-OMe heavy guide RNA (gRNA) design, PCSK9 (nucleic acid)
guide: mG*mG*mU*rGrCrUrArGrCrCrUrUrGrCrGrUrUrCrCrGmGrUrUrUrUrArGmAmGmCmUmAmGmAmAmAmUmAmGmCmAmArGrUrU*mArAmArAmUrAmAmGmGmCmUmArGrUmCmCrGrUrU*rAmUmCrArAmCmUmUmGmAmAmAmAmAmGmUmGrGmCmAmCmCmGmAmGmUmCmGmGmUmGmCmU*mU*mU*mU

The molecules below were run on PCSK9 gene (assay: PCSK9 gRNA/SpCas9 editing in primary cynomolgus hepatocytes (Tables 2, 22)). Settings: SpCas9 mRNA MS002, 625 ng/test article/mL, rep1.
Assay type: cell-based, cynomolgus monkey
Protocol: (§1) In set of experiments, PCSK9 gRNAs were co-transfected with an equivalent amount (1:1 ratio by weight) of in vitro transcribed commercially available SpCas9 mRNA MS002 purchased from TriLink Biotechnologies into primary human hepatocytes at 2500, 500, or 100 ng/RNA/mL and processed as described in detailed methods. Extracted genomic DNA was analyzed for gene editing at the target site with next-generation sequencing of PCR amplicons generated around the target sites. Samples were prepared using the Nextera XT DNA library preparation kit (Illumina) according to the manufacturer's protocol. Briefly, two rounds of PCR were performed first to amplify the region of interest and second to add DNA sequences required for next generation sequencing and sample identification to the initial product. The final amplicon was sequenced on the Illumina MiSeq instrument according to the manufacturer's protocol. A wide range of editing activities (Table 2) were observed. In a second set of experiments, ANGPTL3 gRNAs were co-transfected with an equivalent amount of in vitro transcribed SpCas9 mRNA (1:1 ratio by weight) into primary human hepatocytes and processed and analyzed similarly (Table 3).
[…] Genomic DNA was processed, sequenced, and analyzed as described in the detailed methods section. GA266 was transfected independently twice to serve as two positive controls.
(§2) Plating, culturing, and transfection of primary hepatocytes. Primary human liver hepatocytes (PHH) and primary cynomolgus liver hepatocytes (PCH) from BioIVT were cultured per the manufacturer's protocol. Briefly, primary human hepatocytes and primary cyno hepatocytes were obtained as frozen aliquots from BioIVT. Four lots of primary human hepatocytes, each derived from a de-identified individual donor, were used for the experiments: STL (main donor) was used for all experiments, including screening experiments and off-target experiments; HLY, JLP, and TLY were used for off-target experiments. The HFG lot of primary cyno hepatocytes were used for experiments. Following the manufacturer's instructions, cells were thawed and rinsed prior to plating in 24-well plates that had been coated with bovine collagen overnight, with a density of approximate 350,000 cells/well in INVITROGRO hepatocyte medium supplemented with TORPEDO antibiotic mix (BioIVT). The cells were thawed and resuspended in hepatocyte thawing medium followed by centrifugation at 100 g for 10 min at 4° C. The supernatant was discarded, and the pelleted cells resuspended in hepatocyte plating medium. Each vial contains approximately 5 million cells that were used for plating one 24-well plate. Plated cells were allowed to settle and adhere for 4-6 h in a tissue culture incubator at 37° C. under 5% CO2 atmosphere. After incubation, cells were checked for monolayer formation. The incubating media were then replaced with fresh hepatocyte maintenance media (complete INVITROGRO medium obtained from BioIVT, the cell line provider). The cells thus became ready for transfection. Each of the gRNAs were co-transfected with an equivalent amount of in vitro transcribed ABE8.8 mRNA (1:1 ratio by molecular weight) into primary human hepatocytes via MessengerMax reagent (Lipofectamine), using various dilutions to assess for editing activity at different concentrations of test article. MessengerMAX from Thermo Fisher is used for transfection. Solution A: desired amount of guide RNA is mixed with 1:1 wt ratio of mRNA in OptiMEM. Solution B: MessengerMAX in OptiMEM. After mixing solutions A and B, the mixture was incubated at room temperature for 20 min. 60 μL of the incubated solution was added dropwise to each cell wells. For protospacer sequences that were a perfect match to the corresponding cynomolgous monkey PCSK9 or ANGPTL3 gene sequence, each gRNA was also co-transfected with an equivalent amount of ABE8.8 mRNA (1:1 ratio by molecular weight) into primary cynomolgous hepatocytes, and followed the same transfection protocol. […]

Row | Molecule | Cynomolgus Primary Hepatocytes-% Editing
1 | B1 | 38.33%
2 | B2 | 35.05%
3 | B3 | 31.63%
4 | B4 | 36.7%
5 | B5 | 37.58%
6 | B6 | 38.28%

Same assay, conditions: SpCas9 mRNA MS002, 625 ng/test article/mL, rep2

Row | Molecule | Cynomolgus Primary Hepatocytes-% Editing
7 | B1 | 38.77%
8 | B2 | 40.31%
9 | B3 | 30.16%
10 | B4 | 37.14%
11 | B5 | 40.31%
12 | B6 | 35.58%

Same assay, conditions: SpCas9 mRNA MS002, 1250 ng/test article/mL, rep1

Row | Molecule | Cynomolgus Primary Hepatocytes-% Editing
13 | B1 | 49.12%
14 | B2 | 44.46%
15 | B3 | 41.68%
16 | B4 | 47.21%
17 | B5 | 45.11%
18 | B6 | 50.5%

Same assay, conditions: SpCas9 mRNA MS002, 1250 ng/test article/mL, rep2

Row | Molecule | Cynomolgus Primary Hepatocytes-% Editing
19 | B1 | 48.83%
20 | B2 | 47.93%
21 | B3 | 35.04%
22 | B4 | 49.8%
23 | B5 | 43.68%
24 | B6 | 47.13%

Same assay, conditions: SpCas9 mRNA MS002, 2500 ng/test article/mL, rep1

Row | Molecule | Cynomolgus Primary Hepatocytes-% Editing
25 | B1 | 53.74%
26 | B2 | 45.58%
27 | B3 | 48.3%
28 | B4 | 50.4%
29 | B5 | 57.17%
30 | B6 | 52.62%

Same assay, conditions: SpCas9 mRNA MS002, 2500 ng/test article/mL, rep2

Row | Molecule | Cynomolgus Primary Hepatocytes-% Editing
31 | B1 | 52.79%
32 | B2 | 55.34%
33 | B3 | 50.59%
34 | B4 | 46.92%
35 | B5 | 51.45%
36 | B6 | 55.84%

The molecules below were run on PCSK9 gene (assay: PCSK9 gRNA/SpCas9 editing in primary human hepatocytes (Tables 2, 4)). Settings: 100 ng/RNA/mL; SpCas9 mRNA MS002 1:1 by weight.
Assay type: cell-based
Protocol: as §1
PCSK9 gRNAs were co-transfected with an equivalent amount of in vitro transcribed SpCas9 mRNA MS002 (1:1 ratio by weight) into primary human hepatocytes and processed as described in detailed methods. A wide range of editing activities were observed (Table 4; ND=Not determined). The guides with the highest editing activity at five days post transfection were GA001, GA002, GA007, and GA008.
Human primary hepatocytes were transfected at 2500, 1250, 500, and 250 ng/test article/mL with SpCas9 mRNA MS002 and a gRNA targeting PCSK9 with modifications to the tracr. Genomic DNA was processed, sequenced, and analyzed as described in the detailed methods section. GA156 was transfected to serve as a positive control.
as §2, with “transfection.” for “transfection. Solution A: desired amount of guide RNA is mixed with 1:1 wt ratio of mRNA in OptiMEM. Solution B: MessengerMAX in OptiMEM. After mixing solutions A and B, the mixture was incubated at room temperature for 20 min. 60 μL of the incubated solution was added dropwise to each cell wells. For protospacer sequences that were a perfect match to the corresponding cynomolgous monkey PCSK9 or ANGPTL3 gene sequence, each gRNA was also co-transfected with an equivalent amount of ABE8.8 mRNA (1:1 ratio by molecular weight) into primary cynomolgous hepatocytes, and followed the same transfection protocol.”

Row | Molecule | Human Primary Hepatocyte Editing % 100
37 | B7 | 0.4%

Same assay, conditions: 500 ng/RNA/mL; SpCas9 mRNA MS002 1:1 by weight

Row | Molecule | Human Primary Hepatocyte Editing % 500
38 | B7 | 2.99%

Same assay, conditions: 2500 ng/RNA/mL; SpCas9 mRNA MS002 1:1 by weight

Row | Molecule | Human Primary Hepatocyte Editing % 2500
39 | B7 | 7.61%

Same assay, conditions: SpCas9 mRNA MS002

Row | Molecule | editing compared with minimally modified control gRNA GA009
40 | B8 | improved editing
41 | B9 | improved editing

Same assay, conditions: modified gRNA, SpCas9 mRNA MS002 1:1 by weight; day 3 post transfection

Row | Molecule | % Editing, day 3
42 | B8 | 30%
43 | B9 | 20%

Same assay, conditions: modified gRNA, SpCas9 mRNA MS002 1:1 by weight; day 5 post transfection

Row | Molecule | % Editing, day 5
44 | B8 | 27%
45 | B9 | 28%

— patent publication US20250152746A1, “BASE EDITING OF ANGPTL3 AND METHODS OF USING SAME FOR TREATMENT OF DISEASE” (Verve Therapeutics, Inc., priority 2020, published 2025)
